Earlier results in paper PMC11430116.
pKd: −log10 of the molar value.

Target: VDAC1 (Homo sapiens) (UniProt P21796)
Sequence of UniProt P21796 (P21796 2-283): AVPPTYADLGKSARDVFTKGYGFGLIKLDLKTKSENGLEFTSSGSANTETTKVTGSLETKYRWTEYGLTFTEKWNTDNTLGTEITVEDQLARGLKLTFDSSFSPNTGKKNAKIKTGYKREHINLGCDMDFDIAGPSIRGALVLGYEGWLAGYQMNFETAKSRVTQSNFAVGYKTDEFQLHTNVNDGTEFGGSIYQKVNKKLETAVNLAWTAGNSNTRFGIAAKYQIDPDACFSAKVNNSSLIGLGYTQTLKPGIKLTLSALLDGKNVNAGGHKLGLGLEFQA

In the case of MAVS (from UniProt Q7Z434), the pKd is listed as 6.02.
